The values that follow come from the supplement of paper PMC10567573.

± gives the standard deviation.

This series can be described thus: protein stability index of a GFP-peptide fusion (GPS, HEK-293T) (PSI 1-6); higher = more stable.
Where [1] appears, read: treatment: DMSO, c terminus: a fixed tail appended.
The mark [2] stands for this setting: treatment: MLN4924 1 uM, 8 h, c terminus: a fixed tail appended.
Setting [3] is: treatment: DMSO, c terminus: native.
[4] abbreviates: treatment: MLN4924 1 uM, 8 h, c terminus: native.
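Also: 24-mer peptide tiles fused after GFP, lentivirally expressed, FACS-sorted into six equal bins by GFP/DsRed ratio, decoded by Illumina sequencing, PSI is the read-weighted mean bin number.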

Turning to KNTTYDLIANIVHDGKPSEGSYRI [USP39], the protein stability index turned out to be 2.62 ± 0.4 under setting [1] and 2.52 ± 0.32 under setting [2]. KPGPQDTVERPFYDLWASDNPLDR [NOP53] yielded a protein stability index under setting [1] of 4.45 ± 0.43 and a protein stability index under setting [2] of 4.38 ± 0.16. Taken in the same sequence, the figures for KPTVFIGVPQIWEKIHEMVKKNSA [ACSBG2] were 2.75 ± 0.34 and 2.47 ± 0.81.

On to KQECLITTFQDVYFVSESFEDAKE [TPH1], for which the protein stability index was found to be 4.08 ± 0.73 under setting [1] and 4.45 ± 0.36 under setting [2].

As for KQMSFLEKRGCPRTALEYCKLILS [TCF25], the protein stability index runs as follows: under setting [1], 3.12 ± 1; under setting [2], 3.02 ± 0.2. For KQQREKTRWLNSGRGDEASEEGQN [ADD1], the protein stability index was 5.54 ± 0.16 under setting [1] and 5.48 ± 0.26 under setting [2]. As for KQWGPLEREPVRGQCLDSTDQLEF [RTN2], the protein stability index stood at 4.45 ± 0.35 under setting [1] and 4.71 ± 0.2 under setting [2]. Turning to KRAFKIKDFANTIPGHGGIMDRFD [CDS2], the protein stability index is 2.77 ± 0.27 under setting [1] and 2.91 ± 0.42 under setting [2]. Take KRGGNCPAPAPLVPQDPDLEEEEE [ZBTB22]: the protein stability index reads like this: under setting [1], 5.56 ± 0.26; under setting [2], 5.59 ± 0.21. As for KRKGIKSSIGRLFGKKEKGRLIQL [PPFIA4], the protein stability index runs as follows: under setting [1], 2.46 ± 0.31; under setting [2], 2.22 ± 0.22. Take KRKSEVERAVKRMRHLSTGTMTGL [MATN2]: the protein stability index amounted to 3.31 ± 0.088 under setting [1] and 3.12 ± 0.65 under setting [2]. Regarding KSGEEAVTVLEDLEKGLEPEPQVP [ZNF232], the protein stability index under setting [1] worked out at 5.63 ± 0.17 and the protein stability index under setting [2] amounted to 5.62 ± 0.16. Regarding KSKAELQSEERKRIDELIESGKEE [KMT5A], the protein stability index runs as follows: under setting [1], 5.59 ± 0.25; under setting [2], 5.67 ± 0.21.

As to KSKSITNLAAAAADIPQDQLVVMH [BTBD10], the protein stability index reads like this: under setting [1], 4.43 ± 0.34; under setting [2], 4.64 ± 0.4. Take KSPPQLRQFLPEEFMKTLEKTGPQ [DENND6A]: the protein stability index by setting is: under setting [1], 4.63 ± 0.3; under setting [2], 4.43 ± 0.32. Turning to KSYIFEGALGMSNRDSYFYAAIVA [VMA21], the protein stability index reads like this: under setting [1], 2.96 ± 0.66; under setting [2], 2.6 ± 0.46. As for KTEQQRRREKAVHRLRVQQAALRA [NOP53], the protein stability index came out at 3.98 ± 0.42 under setting [1] and 4.13 ± 0.18 under setting [2]. With KVKWTHEEDEQLRALVRQFGQQDW [MYBL2], the protein stability index runs as follows: under setting [1], 3.19 ± 0.44; under setting [2], 3.44 ± 0.12. In the case of KVLIQKNLGPKSKVLILRNHGLVS [ADD1], the protein stability index by setting is: under setting [1], 2.08 ± 0.36; under setting [2], 2.16 ± 0.33. As for KVNLCGHWYYSKACCRSCRPPHS [ADAMTSL2], the protein stability index runs as follows: under setting [3], 2.86 ± 0.57; under setting [4], 3.17 ± 0.54. With KVTLRIRNVRFSDEGGFTCFFRDH [MOG], the protein stability index turned out to be 2.29 ± 0.5 under setting [1] and 2.21 ± 0.14 under setting [2]. For the sequence KWLDMLNNWDKWMAKKHKKIRLRC [TBC1D10A], the protein stability index under setting [1] was found to be 2.62 ± 0.72 and the protein stability index under setting [2] amounted to 2.27 ± 0.31. The matching figures for KYLTYDQLRKQKKKTGKSSTTALG [ELOA2]: 3.35 ± 0.083 and 3.79 ± 0.34. With LAEGVSASLHTLLGDPCPMLESPG [HDAC6], the protein stability index reads like this: under setting [1], 4 ± 0.28; under setting [2], 4.17 ± 0.29. Take LAESGGSPDVLQMLKIHRSDPQLI [TRADD]: the protein stability index worked out at 3.16 ± 0.43 under setting [1] and 3.36 ± 0.24 under setting [2]. LAEWEANPLICPVCTKYNLRITSG [RPAIN] returned a protein stability index under setting [1] of 3.35 ± 0.36 and a protein stability index under setting [2] of 3.31 ± 0.36. Taken in the same sequence, the figures for LAGPNDRSDVEKGGKIIMPPSALD [UFD1] were 4.77 ± 0.11 and 4.97 ± 0.2. LALFPLLPKVLQKYWCVTATRVAP [ZBED1]: the protein stability index is, setting by setting: under setting [1], 2.98 ± 0.3; under setting [2], 2.94 ± 0.94. Consider LAPNFRWAIPNRQINDGMGGDGDD [BEX3], for which the protein stability index was found to be 4.77 ± 0.22 under setting [1] and 4.6 ± 0.26 under setting [2]. With LARKIASRNEFDRTIAETEAAYLK [SSNA1], the protein stability index runs as follows: under setting [1], 3.57 ± 0.23; under setting [2], 3.74 ± 0.3. In the case of LASRNTLFNLSNFLDKSGSHGYDM [SNAP91], the protein stability index is, setting by setting: under setting [1], 2.2 ± 0.26; under setting [2], 2.61 ± 0.16. The matching figures for LAVRGSRRERELERRELAVEQGER [ZBED3]: 5.05 ± 0.2 and 5.07 ± 0.18. Take LCLQLRDDIVSGRLPCSFVTLALL [EPB41L3]: the protein stability index under setting [1] was 3.24 ± 0.61 and the protein stability index under setting [2] was 2.23 ± 0.45. Taken in the same sequence, the figures for LCSSPLEAETPPNGPDCGYGSFHQ [ATE1] were 4.28 ± 0.18 and 4.24 ± 0.079. The sequence LCYPPAKGCLKLCRRCYDWIHRPG [SPRY1] showed a protein stability index under setting [1] of 2.06 ± 0.094 and a protein stability index under setting [2] of 2.27 ± 0.33.

The sequence LDHDIFQLIDPDENKENEAFEFKK [CDC25A] registered a protein stability index under setting [1] of 4.07 ± 0.083 and a protein stability index under setting [2] of 4.13 ± 0.52. For LDKNKIPYKGFIPEDLEAFIELH [FEM1A], the protein stability index came out at 3.1 ± 0.29 under setting [3] and 3.06 ± 0.27 under setting [4].

With LDLAGNNIPGDVLRAVEQAMGHSQ [LRRC45], the protein stability index reads like this: under setting [1], 4.45 ± 0.39; under setting [2], 4.44 ± 0.28. As to LDQLLHYRKKSAEFPDFYDSEEPV [CHGB], the protein stability index under setting [1] was found to be 3.96 ± 0.34 and the protein stability index under setting [2] came to 4 ± 0.15. LDSSEGSSQEDEDLGLSEGSSQDS [SPANXN3]: the protein stability index is 5.66 ± 0.19 under setting [1] and 5.64 ± 0.23 under setting [2]. Regarding LEEGSSFWNQGLTWKVLFCSMSAT [CLCN6], the protein stability index came out at 3.06 ± 0.55 under setting [1] and 2.63 ± 0.67 under setting [2].

In the case of LELGSTEVLLDHLKAHAEEKPPSG [PLAGL1], the protein stability index runs as follows: under setting [1], 4.46 ± 0.28; under setting [2], 4.94 ± 0.2.

LEPLGAPQAPAPATATDTFEAAPP [CEBPB]: the protein stability index was found to be 5.38 ± 0.42 under setting [1] and 5.39 ± 0.44 under setting [2]. Regarding LERKFRCQQEQLFQTRQEMTSMSA [LRRC45], the protein stability index was 3.22 ± 0.29 under setting [1] and 3.21 ± 0.24 under setting [2].

Take LFGTIAYLPPERIREKSRLFDTKH [RIPK4]: the protein stability index reads like this: under setting [1], 2.57 ± 0.52; under setting [2], 2.57 ± 0.27. Turning to LFLSHVLALGLGIYIGKRLSTPSA [BNIP3L], the protein stability index by setting is: under setting [1], 2.86 ± 0.86; under setting [2], 2.94 ± 0.55. For the sequence LFYFFLYQYCSIHCSDRKQVRNIA [CSTF3], the protein stability index is, setting by setting: under setting [1], 2.92 ± 0.83; under setting [2], 2.61 ± 0.33. Taken in the same sequence, the figures for LGGFRHKVTGVEYHNAGTQTVPKR [IQUB] were 4.03 ± 0.36 and 4.1 ± 0.3. Consider LGMVTPVNDLRGSDSIAYDKGEKL [ADD1], for which the protein stability index is, setting by setting: under setting [1], 4.62 ± 0.3; under setting [2], 4.9 ± 0.089. As to LGYCLLLMLAGMGLHYIAFRKVKQ [DNAJC4], the protein stability index by setting is: under setting [1], 3.18 ± 0.28; under setting [2], 3.11 ± 0.38.

Take LHLLYLLEKVECTPSQEHLKHQTV [FEM1A]: the protein stability index by setting is: under setting [1], 2.29 ± 0.43; under setting [2], 2.23 ± 0.26. In the case of LICEGLYPASIVDEPTFKVLLKTA [ZBED1], the protein stability index under setting [1] worked out at 2.25 ± 0.28 and the protein stability index under setting [2] amounted to 2.31 ± 0.24. Take LIGGLEAQLSELRCEMEAQNQEYK [KRT15]: the protein stability index runs as follows: under setting [1], 4.1 ± 0.15; under setting [2], 4.52 ± 0.44. With LIHKADEVTLSEAGSTAGAAETRG [PALM], the protein stability index runs as follows: under setting [1], 5.31 ± 0.2; under setting [2], 5.18 ± 0.15. Taken in the same sequence, the figures for LIPGDAYTDYVATRWYRAPELLVG [CDKL4] were 2.18 ± 0.22 and 2.18 ± 0.071. In the case of LIQRKKVHVFGDELSLVTLFRCIQ [TNFSF13B], the protein stability index by setting is: under setting [1], 2.25 ± 0.67; under setting [2], 2.04 ± 0.34. As for LIYDFIEDQGGLEAVRQEMRRQEP [WAS], the protein stability index was found to be 2.55 ± 0.28 under setting [1] and 2.75 ± 0.42 under setting [2]. Regarding LKASMRELGLLIFFLFIGVILFSS [KCNA1], the protein stability index was found to be 2.33 ± 0.45 under setting [1] and 2.31 ± 0.48 under setting [2]. Turning to LKECLKKQLEFCFSRENLSKDLYL [LARP4], the protein stability index under setting [2] was determined as 2.67 ± 0.89. On to LKKGESECQYYIDKLEYLDEKQRD [NET1], for which the protein stability index was determined as 4.55 ± 0.15 under setting [1] and 4.5 ± 0.32 under setting [2]. As for LKLLDELPIAKVMKDYLKHKFDDI [ASB7], the protein stability index under setting [1] is 2.04 ± 0.3 and the protein stability index under setting [2] stood at 2.14 ± 0.28.

Sequence LKLVAHPRAKSKVWKYFGFDTNAE [ZBED1] gave a protein stability index under setting [1] of 2.23 ± 0.39 and a protein stability index under setting [2] of 2.25 ± 0.26.

In the case of LKPRPEPPKKPSNWRRKHEEFIAT [ZC2HC1A], the protein stability index by setting is: under setting [1], 3.47 ± 0.22; under setting [2], 3.56 ± 0.17. On to LLDRARGAAAQGQTQTVAAQAQAL [PI4K2A], for which the protein stability index runs as follows: under setting [1], 4.3 ± 0.29; under setting [2], 4.38 ± 0.2. For LLFKYQMKEPITKAEILESVIKNY [MAGEA10], the protein stability index stood at 2.53 ± 0.32 under setting [1] and 2.74 ± 0.29 under setting [2]. Taken in the same sequence, the figures for LLLSILNPTRQDESIQRIAVHLCN [ZER1] were 2.75 ± 0.42 and 2.42 ± 0.45. In the case of LLPKGSKEEQRDYVFYLAVGNYRL [FIS1], the protein stability index reads like this: under setting [1], 2.63 ± 0.56; under setting [2], 2.15 ± 0.063.

On to LLRFAQVFSQMIHLNETVKAPDIE [FEM1B], for which the protein stability index runs as follows: under setting [1], 2.67 ± 1.1; under setting [2], 2.46 ± 0.85.

Regarding LLSLKQNHEQEVNTLRCQLGDRLN [KRT33B], the protein stability index by setting is: under setting [1], 3.38 ± 0.16; under setting [2], 3.46 ± 0.2. As to LMSGCSSELKNRMEYALNMLLQRC [PLK2], the protein stability index came to 2.04 ± 0.22 under setting [1] and 2.22 ± 0.29 under setting [2]. Take LNQKGTAVETEGSGSRHPPWARGC [SLC2A12]: the protein stability index is 3.98 ± 0.29 under setting [1] and 4.08 ± 0.38 under setting [2].

Take LNQQVVSSSEQLQCCQTEIIELRR [KRT36]: the protein stability index was 4.29 ± 0.22 under setting [1] and 4.04 ± 0.27 under setting [2].
